Reference: patent US20230017515A1 (JIANGSU ALPHAMAB BIOPHARMACEUTICALS, published 2023)

Molecular target: T1, human PD-L1 (WT) (human, UniProt Q9NZQ7 19-127, limits assumed)
T1 construct: also called human PD-L1 N-terminal IgV domain
Test: affinity measurement, method not stated

T1 sequence (Q9NZQ7 19-127 limits assumed): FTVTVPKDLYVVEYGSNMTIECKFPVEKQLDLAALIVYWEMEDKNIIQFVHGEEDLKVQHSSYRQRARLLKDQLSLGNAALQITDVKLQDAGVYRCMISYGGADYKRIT

- Kd: 5.92 nM
B1: PD-L1 ISVD-9 (VHH)
VHH: QVQLVESGGGLVQPGGSLRLSCAASGKMSSRRCMAWFRQAPGKERERVAKLLTTSGSTYLADSVKGRFTISRDNSKNTVYLQMNSLRAEDTAVYYCAADSFEDPTCTLVTSSGAFQYWGQGTLVTVSS
notes: also called ISVD specific for PD-L1; aPDL1.9
